Results: paper PMC4538836, “Human DNA ligase III bridges two DNA ends to promote specific intermolecular DNA end joining”

T1: DNA ligase III beta (LigIII) (Homo sapiens, UniProt P49916-4 1-862)
T1 sequence: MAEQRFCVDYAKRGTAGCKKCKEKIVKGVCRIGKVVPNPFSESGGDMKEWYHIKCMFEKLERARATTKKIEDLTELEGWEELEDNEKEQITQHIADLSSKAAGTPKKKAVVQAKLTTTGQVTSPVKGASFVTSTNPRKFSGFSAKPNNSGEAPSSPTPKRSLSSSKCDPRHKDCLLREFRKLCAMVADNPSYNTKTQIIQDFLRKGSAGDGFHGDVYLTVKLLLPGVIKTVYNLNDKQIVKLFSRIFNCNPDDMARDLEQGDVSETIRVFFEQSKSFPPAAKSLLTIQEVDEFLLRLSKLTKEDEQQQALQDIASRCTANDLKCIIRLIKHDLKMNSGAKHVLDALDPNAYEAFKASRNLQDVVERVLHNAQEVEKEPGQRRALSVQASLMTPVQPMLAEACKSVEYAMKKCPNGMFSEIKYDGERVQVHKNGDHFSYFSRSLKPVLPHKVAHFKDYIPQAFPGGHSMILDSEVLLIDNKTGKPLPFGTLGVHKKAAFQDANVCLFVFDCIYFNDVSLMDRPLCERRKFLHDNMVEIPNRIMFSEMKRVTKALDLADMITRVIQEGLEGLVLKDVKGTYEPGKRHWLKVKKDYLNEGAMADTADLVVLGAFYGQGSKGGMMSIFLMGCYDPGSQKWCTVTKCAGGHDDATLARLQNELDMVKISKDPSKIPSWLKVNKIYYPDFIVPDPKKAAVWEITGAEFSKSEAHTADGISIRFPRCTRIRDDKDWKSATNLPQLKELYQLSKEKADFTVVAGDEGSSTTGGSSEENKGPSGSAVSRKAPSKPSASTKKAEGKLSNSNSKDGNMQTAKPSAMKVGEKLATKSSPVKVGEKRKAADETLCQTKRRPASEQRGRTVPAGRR


Columns and labels:
[1] = target: T1, DNA ligase III beta (LigIII); assay: fluorescence anisotropy; stoichiometric titration, 1 LigIII : 2 DNA; 50 mM HEPES-NaOH pH 7.5, 80 mM NaCl, 5 mM MgCl2, 1 mM DTT, 1 mM ATP, 50 ug/ml BSA; anisotropy 25 C (25 nM DNA), TR-FRET room temperature, pull-down 4 C; settings: protein: recombinant; tags: N-terminal His (pQE32); label: 5'-FITC on strand 1; blunt
[2] = target: T1, DNA ligase III beta (LigIII); assay: TR-FRET; DNA bridging; 5 mM Mg2+, 1 mM ATP; 50 mM HEPES-NaOH pH 7.5, 80 mM NaCl, 5 mM MgCl2, 1 mM DTT, 1 mM ATP, 50 ug/ml BSA; anisotropy 25 C (25 nM DNA), TR-FRET room temperature, pull-down 4 C; settings: protein: recombinant; tags: N-terminal His (pQE32); label: 5'-biotin on S1; 5'-FITC on S3; two blunt duplexes

| Binder | binding result [1] | binding result [2] |
| --- | --- | --- |
| FITC blunt duplex (dsDNA) DNA 1: CATGATTACGG DNA 2: CCGTAATCATG | binds | – |
| bridged pair, blunt ends (dsDNA) DNA 1: AGTGAATTCGAGCTCG DNA 2: CGAGCTCGAATTCACT DNA 3: CATGATTACGG DNA 4: CCGTAATCATG | – | binds |
